Experimental data reported in publication PMC2632936 (Journal of molecular biology, 2008).

Tests used:
[1] = target: Vps4_(ΔMIT, E233Q) (solution experiments) (S. cerevisiae) (UniProt P52917); test: AUC
[2] = target: the molecule itself; test: AUC

stoichiometry N [1] | Molecule | Kd [2] | stoichiometry N [2]
2.19 | Vps4_(ΔMIT, E233Q) (solution experiments) (from UniProt P52917 104-437) (domain or fragment) | – | –
– | full length Vps4_(E233Q) (S. cerevisiae) (enzyme, UniProt P52917 1-437, looked up) MSTGDFLTKGIELVQKAIDLDTATQYEEAYTAYYNGLDYLMLALKYEKNPKSKDLIRAKFTEYLNRAEQLKKHLESEEANAAKKSPSAGSGSNGGNKKISQEEGEDNGGEDNKKLRGALSSAILSEKPNVKWEDVAGLEGAKEALKEAVILPVKFPHLFKGNRKPTSGILLYGPPGTGKSYLAKAVATEANSTFFSVSSSDLVSKWMGESEKLVKQLFAMARENKPSIIFIDQVDALTGTRGEGESEASRRIKTELLVQMNGVGNDSQGVLVLGATNIPWQLDSAIRRRFERRIYIPLPDLAARTTMFEINVGDTPCVLTKEDYRTLGAMTEGYSGSDIAVVVKDALMQPIRKIQSATHFKDVSTEDDETRKLTPCSPGDDGAIEMSWTDIEADELKEPDLTIKDFLKAIKSTRPTVNEDDLLKQEQFTRDFGQEGN | < 5 µM | 1.97
